Reference: US6485941B1, “Inhibition of the carboxyltransferase component of acetyl-CoA carboxylase, and the use of such inhibition in anti-cancer and anti-lipogenic therapies” (Board of Supervisors of Louisiana State University and …, priority 2002, dated 2002)

Substrate: CC(C)(COP(=O)(O)OP(=O)(O)OC[C@H]1O[C@@H](n2cnc3c(N)ncnc32)[C@H](O)[C@@H]1OP(=O)(O)O)[C@@H](O)C(=O)NCCC(=O)NCCSC(=O)CC(=O)O
Experiment: Carboxyltransferase inhibition, assayed in the reverse direction with coupled spectrophotometric detection
Type: biochemical, E. coli
Conditions: other: substrate of carboxyltransferase
Description: Carboxyltransferase was purified from a strain of E. coli that overexpresses the genes encoding the α and β subunits of the enzyme.
Carboxyltransferase was assayed in the reverse direction: the production of acetyl-CoA was detected by using the coupling enzymes malate dehydrogenase and citrate synthase, and the reduction of NAD^+ was measured spectrophotometrically by the method of C.
In Equations [1] and [2], v is the initial velocity, Vm is the maximal velocity, A is the substrate concentration, I is the concentration of inhibitor, Km is the Michaelis constant, Kis is the slope inhibition constant, and Kii is the intercept inhibition constant.
v=VmA/(Km(1+I/Kis)+A(1+I/Kii)) [2]
The activity of carboxyltransferase was measured in the reverse direction using malonyl-CoA and biocytin as substrates.

B1: carboxyltransferase component of E. coli acetyl-CoA carboxylase (Escherichia coli K-12) (protein)
chain 1: MSLNFLDFEQPIAELEAKIDSLTAVSRQDEKLDINIDEEVHRLREKSVELTRKIFADLGAWQIAQLARHPQRPYTLDYVRLAFDEFDELAGDRAYADDKAIVGGIARLDGRPVMIIGHQKGRETKEKIRRNFGMPAPEGYRKALRLMQMAERFKMPIITFIDTPGAYPGVGAEERGQSEAIARNLREMSRLGVPVVCTVIGEGGSGGALAIGVGDKVNMLQYSTYSVISPEGCASILWKSADKAPLAAEAMGIIAPRLKELKLIDSIIPEPLGGAHRNPEAMAASLKAQLLADLADLDVLSTEDLKNRRYQRLMSYGYA
chain 2: MSWIERIKSNITPTRKASIPEGVWTKCDSCGQVLYRAELERNLEVCPKCDHHMRMTARNRLHSLLDEGSLVELGSELEPKDVLKFRDSKKYKDRLASAQKETGEKDALVVMKGTLYGMPVVAAAFEFAFMGGSMGSVVGARFVRAVEQALEDNCPLICFSASGGARMQEALMSLMQMAKTSAALAKMQERGLPYISVLTDPTMGGVSASFAMLGDLNIAEPKALIGFAGPRVIEQTVREKLPPGFQRSEFLIEKGAIDMIVRRPEMRLKLASILAKLMNLPAPNPEAPREGVVVPPVPDQEPEA
notes: made in house; host or cells: E. coli overexpression strain (Blanchard et al. 1998; G. Waldrop, LSU)
Km: 100 µM
